From patent US20130142788A1 (published 2013)
* marks the point of attachment. Biotin = O=C1N[C@H]2[C@H](CS[C@H]2CCCCC(=O)*)N1

Experiments:
Assay in all cases: SRU BIND biosensor, peptides captured on streptavidin plate
[1] = target: T1, myostatin artificial peptide No 5 (SGSGHSTESRCCRYPLTV) (cysteine pairing not given here)
T1 construct: also called Peptide 5
T1 peptide: Biotin-SGSGHSTESRCCRYPLTV-NH2
Experimental: (§1) Work was carried out on an SRU BIND reader (SRU Biosystems). A streptavidin biosensor plate was washed, a baseline reading taken, and biotinylated peptides captured onto the streptavidin coated biosensor plate. The plate was washed again, and a new baseline reading taken, antibody was then added and binding monitored.

[2] = target: T2, myostatin artificial peptide No 9 (SGSGRYPLTVDFEAFGWD) (HELM PEPTIDE1{[O=C1N[C@H]2[C@H](CS[C@H]2CCCCC(=O)[*:2])N1].S.G.S.G.R.Y.P.L.T.V.D.F.E.A.F.G.W.D.[am]}$$$$V2.0; SMILES …)
T2 construct: also called Peptide 9
T2 peptide: SGSGRYPLTVDFEAFGWD
Experimental: as §1

[3] = target: T3, myostatin artificial peptide No 11 (SGSGTVDFEAFGWDWIIA) (HELM PEPTIDE1{[O=C1N[C@H]2[C@H](CS[C@H]2CCCCC(=O)[*:2])N1].S.G.S.G.T.V.D.F.E.A.F.G.W.D.W.I.I.A.[am]}$$$$V2.0; SMILES …)
T3 construct: also called Peptide 11
T3 peptide: SGSGTVDFEAFGWDWIIA
Experimental: as §1

[4] = target: T4, myostatin artificial peptide No 13 (SGSGEAFGWDWIIAPKRY) (HELM PEPTIDE1{[O=C1N[C@H]2[C@H](CS[C@H]2CCCCC(=O)[*:2])N1].S.G.S.G.E.A.F.G.W.D.W.I.I.A.P.K.R.Y.[am]}$$$$V2.0; SMILES …)
T4 construct: also called Peptide 13
T4 peptide: SGSGEAFGWDWIIAPKRY
Experimental: as §1

[5] = target: T5, myostatin artificial peptide No 15 (SGSGWDWIIAPKRYKANY) (HELM PEPTIDE1{[O=C1N[C@H]2[C@H](CS[C@H]2CCCCC(=O)[*:2])N1].S.G.S.G.W.D.W.I.I.A.P.K.R.Y.K.A.N.Y.[am]}$$$$V2.0; SMILES …)
T5 construct: also called Peptide 15
T5 peptide: SGSGWDWIIAPKRYKANY
Experimental: as §1

[6] = target: T6, myostatin artificial peptide No 17 (SGSGIAPKRYKANYCSGE) (HELM PEPTIDE1{[O=C1N[C@H]2[C@H](CS[C@H]2CCCCC(=O)[*:2])N1].S.G.S.G.I.A.P.K.R.Y.K.A.N.Y.C.S.G.E.[am]}$$$$V2.0; SMILES …)
T6 construct: also called Peptide 17
T6 peptide: SGSGIAPKRYKANYCSGE
Experimental: as §1

[7] = target: T7, myostatin artificial peptide No 19 (SGSGRYKANYCSGECEFV) (cysteine pairing not given here)
T7 construct: also called Peptide 19
T7 peptide: Biotin-SGSGRYKANYCSGECEFV-NH2
Experimental: as §1

[8] = target: T8, myostatin artificial peptide No 21 (SGSGNYCSGECEFVFLQK) (cysteine pairing not given here)
T8 construct: also called Peptide 21
T8 peptide: Biotin-SGSGNYCSGECEFVFLQK-NH2
Experimental: as §1

[9] = target: T9, myostatin artificial peptide No 23 (SGSGGECEFVFLQKYPHT) (HELM PEPTIDE1{[O=C1N[C@H]2[C@H](CS[C@H]2CCCCC(=O)[*:2])N1].S.G.S.G.G.E.C.E.F.V.F.L.Q.K.Y.P.H.T.[am]}$$$$V2.0; SMILES …)
T9 construct: also called Peptide 23
T9 peptide: SGSGGECEFVFLQKYPHT
Experimental: as §1

[10] = target: T10, myostatin artificial peptide No 25 (SGSGFVFLQKYPHTHLVH) (HELM PEPTIDE1{[O=C1N[C@H]2[C@H](CS[C@H]2CCCCC(=O)[*:2])N1].S.G.S.G.F.V.F.L.Q.K.Y.P.H.T.H.L.V.H.[am]}$$$$V2.0; SMILES …)
T10 construct: also called Peptide 25
T10 peptide: SGSGFVFLQKYPHTHLVH
Experimental: as §1

[11] = target: T11, myostatin artificial peptide No 27 (SGSGQKYPHTHLVHQANP) (HELM PEPTIDE1{[O=C1N[C@H]2[C@H](CS[C@H]2CCCCC(=O)[*:2])N1].S.G.S.G.Q.K.Y.P.H.T.H.L.V.H.Q.A.N.P.[am]}$$$$V2.0; SMILES …)
T11 construct: also called Peptide 27
T11 peptide: SGSGQKYPHTHLVHQANP
Experimental: as §1

[12] = target: T12, myostatin artificial peptide No 29 (SGSGHTHLVHQANPRGSA) (HELM PEPTIDE1{[O=C1N[C@H]2[C@H](CS[C@H]2CCCCC(=O)[*:2])N1].S.G.S.G.H.T.H.L.V.H.Q.A.N.P.R.G.S.A.[am]}$$$$V2.0; SMILES …)
T12 construct: also called Peptide 29
T12 peptide: SGSGHTHLVHQANPRGSA
Experimental: as §1

[13] = target: T13, myostatin artificial peptide No 33 (SGSGNPRGSAGPCCTPTK) (cysteine pairing not given here)
T13 construct: also called Peptide 33
T13 peptide: Biotin-SGSGNPRGSAGPCCTPTK-NH2
Experimental: as §1

[14] = target: T14, myostatin artificial peptide No 39 (SGSGTKMSPINMLYFNGK) (HELM PEPTIDE1{[O=C1N[C@H]2[C@H](CS[C@H]2CCCCC(=O)[*:2])N1].S.G.S.G.T.K.M.S.P.I.N.M.L.Y.F.N.G.K.[am]}$$$$V2.0; SMILES …)
T14 construct: also called Peptide 39
T14 peptide: SGSGTKMSPINMLYFNGK
Experimental: as §1

[15] = target: T15, myostatin artificial peptide No 47 (SGSGIIYGKIPAMVVDRC) (HELM PEPTIDE1{[O=C1N[C@H]2[C@H](CS[C@H]2CCCCC(=O)[*:2])N1].S.G.S.G.I.I.Y.G.K.I.P.A.M.V.V.D.R.C.[am]}$$$$V2.0; SMILES …)
T15 construct: also called Peptide 47
T15 peptide: SGSGIIYGKIPAMVVDRC
Experimental: as §1

[16] = target: T16, myostatin artificial peptide No 49 (SGSGGKIPAMVVDRCGCS) (cysteine pairing not given here)
T16 construct: also called Peptide 49
T16 peptide: Biotin-SGSGGKIPAMVVDRCGCS-OH
Experimental: as §1

Measured: binding result

B1: mouse monoclonal antibody 10B3 (antibody, mouse IgG2a, V domains shown)
VH: EVQLQQSGPELVKPGASVKISCKASGYSFTGYFMHWVKQSHGNILDWIGNIYPYNGVSNYNQRFKAKATLTVDKSSSTAYMELRSLTSEDSAVYYCARRYYYGTGPADWYFDVWGTGTTVTVSS
VL: DIKMTQSPSSMYASLRERVTITCKASQDINSYLSWFQQKPGKSPKTLIYRANRLVDGVPSRFSGSGSGQDYSLTISSLEYEDMGIYYCLQCDEFPLTFGAGTKLELK
notes: Murine IgG2a/k; also called 10B3 mouse parental; parental 10B3
no binding: all assays above
